Experiment: soluble on expression in E. coli; label from the status in PepcDB or PDB records
In the case of “MVNKDVKQTTAFGAPVWDDNNVITAGPRGPVLLQSTWFLEKLAAFDRERIPERVVHAKGSGAYGTFTVTKDITKYTKAKIFSKVGKKTECFFRFSTVAGERGSADAVRDPRGFAMKYYTEEGNWDLVGNNTPVFFIRDAIKFPDFIHTQKRDPQTNLPNHDMVWDFWSNVPESLYQVTWVMSDRGIPKSFRHMDGFGSHTFSLINAKGERFWVKFHFHTMQGVKHLTNEEAAEIRKHDPDSNQRDLFDAIARGDYPKWKLSIQVMPEEDAKKYRFHPFDVTKIWYTQDYPLMEVGIVELNKNPENYFAEVEQAAFTPANVVPGIGYSPDRMLQGRLFSYGDTHRYRLGVNYPQIPVNKPRCPFHSSSRDGYMQNGYYGSLQNYTPSSLPGYKEDKSARDPKFNLAHIEKEFEVWNWDYRADDSDYYTQPGDYYRSLPADEKERLHDTIGESLAHVTHKEIVDKQLEHFKKADPKYAEGVKKALEKHQKMMKDMHGKDMHHTKKKK”, the “soluble on expression in E. coli” value is reported as “soluble”.
For “MGSDKIHHHHHHMNKELASKFLSSIKHEREQDIQTTSRLLTTLSIQQLVQNGLAINNIHLENIRSGLIGKLYMELGPNLAVNDKIQRGDIKVGDIVLVRPAKTKVNTKTKPKVKKVSEDSNGEQAECSGVVYKMSDTQITIALEESQDVIATTFYSYSKLYILKTTNVVTYNRMESTMRKLSEISSPIQDKIIQYLVNERPFIPNTNSFQNIKSFLNPNLNDSQKTAINFAINNDLTIIHGPPGTGKTFTLIELIQQLLIKNPEERILICGPSNISVDTILERLTPLVPNNLLLRIGHPARLLDSNKRHSLDILSKKNTIVKDISQEIDKLIQENKKLKNYKQRKENWNEIKLLRKDLKKREFKTIKDLIIQSRIVVTTLHGSSSRELCSLYRDDPNFQLFDTLIIDEVSQAMEPQCWIPLIAHQNQFHKLVLAGDNKQLPPTIKTEDDKNVIHNLETTLFDRIIKIFPKRDMVKFLNVQYRMNQKIMEFPSHSMYNGKLLADATVANRLLIDLPTVDATPSEDDDDTKIPLIWYDTQGDEFQETADEATILGSKYNEGEIAIVKEHIENLRSFNVPENSIGVISPYNAQVSHLKKLIHDELKLTDIEISTVDGFQGREKDVIILSLVRSNEKFEVGFLKEERRLNVAMTRPRRQLVVVGNIEVLQRCGNKYLKSWSEWCEENADVRYPNIDDYL”, the “soluble on expression in E. coli” value was “not soluble”.
For “FLVPPTVEQKTRPFTLPNLPLSSLSNSRAPLPISSMGISPDNVQSVQFQNGRCTLDGRLVGTTPVSLSHVAKIRGTSNGTVINLTELDGTPFHPFEGPAPIGFPDLGGCDWHINMTQFGHSSQTQYDVDTTPDTFVPHLGSIQANGIGSGNYVGVLSWISPPSHPSGSQVDLWKIPNYGSSITEATHLAPSVYPPGFGEVLVFFMSKMPGPGAYNLPCLLPQEYISHLASEQAPTVGEAALLHYVDPDTGRNLGEFKAYPDGFLTCVPNGASSGPQQLPINGVFVFVSWVSRFYQLKPVGTASSARGRLGLRR”, the “soluble on expression in E. coli” value was “soluble”.
With “KFGIARSGAMDEDALRMANILLGNKQDEAGIELCLKGGKYEFLDENYFVLSGAEFEAKLDNQKIKTCKVYQANKGDILELDLAKIGFRGYLCVAGGFEVKSFLNSKSSDAKMGAGVFEGRALQKDDILNTHNTFIPFNLEARECENPLFKSPKEPIIRVILGTNEDAFTQKGIETFLNTTYKVGLKSDRMAIYAESSESIEHKNSADIISDPAVFGSIQVPKSGIPIILMAGRQSTGGYTKIATVIENDLSLLAQAKLGSSFKFQSISMQEALELYKQREMK” the “soluble on expression in E. coli” value was “not soluble”.
With “MRFPPLLFFQDSEAVKRIANSVRGTKDDDAEIKDHSMRFIRNAISGDQQKEILNVDMLRYIAWVLVALNENIVTARTVIRERDAVEDALKNQQPEDIENFADDLKINMKYNRDLERFEIGVFDFVKYASRVTGSQYRLSNQSVIKGIVYCQKDVAIKILRESFVSNMFKVIDSIDQTTASPVLSDQTDSINELREFYKKSVYAKLTIGRGNTKAFPPCMKEIIRNLHEGINVPHMGRLAIASFLHKVGYTEDEIVEYFRNAPDFDESITRYQIKHLSGEISGVEYSPPKCETMRSNHLCFMDDDKLCHQDWMKHPLTYYEVKSRRLGMAGDPNSLEHHHHHH” the “soluble on expression in E. coli” value was “not soluble”.
In the case of “MHKVVIVGRPNVGKSSLFNRLLKKRSAVVADVPGVTRDLKEGVVETDRGRFLLVDTGGLWSGDKWEKKIQEKVDRALEDAEVVLFAVDGRAELTQADYEVAEYLRRKGKPVILVATKVDDPKHELYLGPLYGLGFGDPIPTSSEHARGLEELLEAIWERLPVRQIETEPEVAGIRLAIVGRPNAGKSSLLNAILGEERVIVSEEPGTTRDAIDVEFFFGGQRFVLVDTAGIRKRPENLVEELAIRRSLRAMDEADVVLLVVDPFQVGDRELKLANEALDRGKPVLLVITKWDLVDKEDAPKMRRLLREKLAHLDHLPRVFTSALTRQNLDRIFREAVRLHELNQTRVPTAELNRWVAVWTSRVQMPNFKGKPLKILYATQPEVAPPTFVFFVNHPEFVTRAFENYLKNRIGEDLGLREVPFRLVFRGRREE”, the “soluble on expression in E. coli” value is reported as “soluble”.
In the case of “MKTPALPTVQSPLLSSLPGVKHAFFTRQGGVSKGIYDSLNVGRGSQDEPADVEENRARIARWFGGGPEDLNVCYQIHSTIAIVADGSWGDARPEGDAVVSKTPGVICGAMAADCAPVLLVDPEARIVAAAHAGWRGALDGVVQSAVDRMVELGASPANITGVVGPCIGPKSYEVGLEFLHRFEADCPGSGRFFKPGASEDKRFFDLPAFVLDRLATAGVERREWVGRDTRAEEEWFFSNRRAFLNNDGDYGRLLSAITLEA”, the “soluble on expression in E. coli” value is reported as “soluble”.
In the case of “SPKRETKKIKPSQEVIKEGPFLVAIHLKGIYMSNYTNSPCAACKFLRRKCTSDCVFAPYFPPEEPTKFANVHRIFGASNVSKILHEVAPHQREDAVNSLAYEAEARLKDPVYGCVGAISVLQRQVLRLQRELEETNADLMRYAGCLGGETTSAYGGRRG”, the “soluble on expression in E. coli” value is reported as “soluble”.
With “MGSDKIHHHHHHMIRVLSVFGTRPEAIKMAPLVKKLEEEQNVESLVCVTAQHRQMLDQVLEVFDIKPDFDLNIMKERQNLSDITVNALSGLYDLIGELKPDIVLVQGDTTTTFAGALAAFYHRIPVGHVEAGLRTNDRYSPFPEEINRRLTGVLSTLHFAPTKRNRENLLKENVMGKIYVTGNTVIDALRYTVKENHVFEDPILRNMDFSDGRYILLTSHRRENIGKPLENICRAVRRIVEGFEDVKVIYPVHMNPAVREIVFPMLENVERVFLIDPVNVIDMHNLMARSYLIMTDSGGIQEEAPALGKPVIVLRKETERPEAIEAGVAVLGGVEEERIFELAKKLLVDREEYEKMAKAVNPFGDGRASERIVKAILHEFGLSDPPEEFC” the “soluble on expression in E. coli” value was “not soluble”.
For “MSLTNFSQQHLPLVEKVMVDFIAEYTENERLKEAMLYSIHAGGKRLRPLLVLTTVAAFQKEMETQDYQVAASLEMIHTYSLIHDDLPAMDDDDLRRGKPTNHKVFGEATAILAGDGLLTGAFQLLSLSQLGLSEKVLLMQQLAKAAGNQGMVSGQMGDIEGEKVSLTLEELAAVHEKKTGALIEFALIAGGVLANQTEEVIGLLTQFAHHYGLAFQIRDDLLDATSTEADLGKKVGRDEALNKSTYPALLGIAGAKDALTHQLAEGSAVLEKIKANVPNFSEEHLANLLTQLQLREGHHHHHH”, the “soluble on expression in E. coli” value was “soluble”.
For “MLQHKILGLDVGSRTVGIAISDIMGWTAQGLDTLRINEENNELGIDQLVDIIKKHNVGTVVIGLPKNMNNSIGFRGEASLTYKEKLLEAYPSIEIVMWDERLSTMAAERSLLEADVSRQKRKQVIDKMAAVFILQGYLDSLHLEHHHHHH”, the “soluble on expression in E. coli” value was “soluble”.
For “MGSDKIHHHHHHMKIKKYVAESIREAMIMIRRELGENAVILSSRRIKKGGFFGIGGKTYFEVTAAVEEERKKEENTSYRLQEILVKNRQSSNDNIKGEFDEIKRTINEIKQMLVTEKRQTLPEGLSKILYGMEKQEILPEIRYKLIDFLKMKFGDLDPNSNETFKILSEQFVNLVKTNAPDFKNAKVLFVGTTGVGKTTSLAKLAARFKIDEKKRVAILTLDTYRIAAAEQLKIYADIMDIPMKIAYTPKEAEYEMMALKDYDIVLVDTAGRSHQNDLQMSELRALSEAVKPNITFLVLSMNYKLDDMKRIVERFSAVKPTHIILTKMDETSVYGTFVNISEITGLPIAFVTNGQRVPDDIFEANPVELARIVAGEVLNHARSSGTSEKE”, the “soluble on expression in E. coli” value was “not soluble”.
In the case of “LGSVKPATCEKPKFLEYKTCVGDLAVVIAKALDEFKEFCIVNAANEHMSHGGGVAKAIADFCGPDFVEYCADYVKKHGPQQKLVTPSFVKGIQCVNNVVGPRHGDSNLREKLVAAYKSVLVGGVVNYVVPVLSSGIFGVDFKISIDAMREAFKGCAIRVLLFSLSQEHIDYFDATCK”, the “soluble on expression in E. coli” value is reported as “soluble”.
With “MGSSHHHHHHNFYDSDPHISELTPKSFDKAIHNTNYTSLVEFYAPWCGHCKKLSSTFRKAAKRLDGVVQVAAVNCDLNKNKALCAKYDVNGFPTLMVFRPPKIDLSKPIDNAKKSFSAHANEVYSGARTLAPIVDFSLSRIRSYVKKFVRIDTLGSLLRKSPKLSVVLFSKQDKISPVYKSIALDWLGKFDFYSISNKKLKQLTDMNPTYEKTPEIFKYLQKVIPEQRQSDKSKLVVFDADKDKFWEYEGNSINKNDISKFLRDTFSITPNEGPFSRRSEYIAYLKTGKKPIKKNHSS” the “soluble on expression in E. coli” value was “soluble”.
In the case of “MKKTTLAMSALALSLGLALSPLSATAAETSSSAMTAQQMPSLAPMLEKVMPSVVSINVEGSTTVNTPRMPRNFQQFFGDDSPFCQDGSPFQNSPFCQGGGNGGNGGQQQKFMALGSGVIIDAAKGYVVTNNHVVDNASVIKVQLSDGRKFDAKVVGKDPRSDIALIQIQNPKNLTAIKLADSDALRVGDYTVAIGNPFGLGETVTSGIVSALGRSGLNVENYENFIQTDAAINRGNSGGALVNLNGELIGINTAILAPDGGNIGIGFAIPSNMVKNLTSQMVEYGQVKRGELGIMGTELNSELAKAMKVDAQRGAFVSQVMPNSSAAKAGIKAGDVITSLNGKPISSFAALRAQVGTMPVGSKISLGLLREGKAITVNLELQQSSQSQVDSSTIFSGIEGAEMSNKGQDKGVVVSSVKANSPAAQIGLKKGDVIIGANQQPVKNIAELRKILDSKPSVLALNIQRGDSSIYLLMQ”, the “soluble on expression in E. coli” value is reported as “not soluble”.
With “ASELNIYSARHYNADFEIIKKFEEKTGIKVNHTQAKASELIKRLSLEGSNSPADIFITADISNLTEAKNLGLLSPVSSKYLEEFIPAHLRDKDKEWFAITKRARIIAYNKNTNIDISKMKNYEDLAKAEFKGEIVMRSATAPYSKTLLASIIANDGNKEAKAWAKGVLENLATNPKGGDRDQARQVFAGEAKFAVMNTYYIGLLKNSKNPKDVEVGNSLGIIFPNQDNRGTHINISGIAMTKSSKNQDAAKKFMEFMLSPEIQKILTDSNYEFPIRNDVELSQTVKDFGTFKEDQIPVSKIAENIKEAVKIYDEVGFRIEGR” the “soluble on expression in E. coli” value was “soluble”.
With “MGSDKIHHHHHHMDGHRLIQPLHARTADVGGIPVNRVMPQRGRRLIGAWCFLDHAGPATFTVGAGGMRVGSHPHIGLQTFTWMLAGEIMHHDSLGNAQRIRPGELNLMTAGRGIAHTEESILESGQLHAAQLWITLPHATRHTSPRFDHYPDLPRWSEQGTDVTLLRGDFQGREAPTHAFSPLVGLDIVSPDATQLTLPARTDFEYGVLLLEGSLTIERDRFDTNEMAYLGSGLDEITLAMEAGTRALMLGGEPLNEDILIWWNFVGHSKAEIAEAQKEWEEWEAGSDRFGDVPEFDGERIMPPPIPWKVTAN” the “soluble on expression in E. coli” value was “not soluble”.
With “MQIEKMKLSDLKAADYNPRVDLKPGMQEYEKLKQSILEFGFVDPPIYNIQTGNLVGGHQRVAVAKELGLFNEIEVSVVDLPLDKEKALNVALNKISGRWDEEKLSILLNELDDEAVNLTGFDTEEVDSLLASFNYEEDIEKPIIEDDFQVNEFIENHHEAKTKLGQLWKLGNHYLLCGDATKLSDVEKLLQGKKANLVVTDPPYNVAVKSDNKELNESGREKIMNDDMSDEEFDQFLMSVFQNYSNAMRDDSAIYVFHGSSYQREFENSMNAAGIVVRSQCIWVKNNATFGWSQYRWQHEPVFYAHKKKQAPSWYGDRKQTTIWQDDLLEDLPATIWKVPRDDVATYYHPTQKPLSLIAIPVRNSSKRQDIVLDLFGGSGSTLMTCEQLNRICYTLELDPLFCDVIIERFEKSTGIIAELVE” the “soluble on expression in E. coli” value was “not soluble”.

— the DeepSol protein solubility set
